Assays:
Type in all cases: cell-based
Candida albicans [1] = assay: Candida albicans growth by optical density, every 2 hrs up to 24 hrs (Example 1); conditions: single component alone, FIGS. 1 and 2
Method: In this example, a manuka honey was mixed with lactoferrin at varying concentrations and the degree of Candida albicans growth was measured and compared to each of the individual components alone. Samples of honey alone being a manuka honey with a UMF rating of ˜15 were collected. The honey was diluted with distilled water to honey concentrations of 12.5, 11.25, 10, 8.75, 7.5 and 0% (w/v). Samples of lactoferrin alone were also collected and similarly diluted with distilled water to concentrations of 5 mg/mL (5%), 4.5 mg/mL (4.5%), 4 mg/mL (4%), 3.5 mg/mL (3.5%), 3 mg/mL (3%) and 0% (w/v). Mixed samples were then produced using honey concentrations of 12.5, 11.25, 10, 8.75, 7.5 and 0% (w/v) along with lactoferrin at a concentration of 5 mg/mL of lactoferrin. Four replications were completed for each of the samples. Microbial growth for each of the samples was then measured every 2 hrs continuously for up to 24 hrs, determined by measuring the optical density of the mixture.

Candida albicans [2] = assay: Candida albicans growth curves at 28° C. by absorbance (540 nm), percentage inhibition vs media alone (Examples 2 and 3); conditions: lactoferrin used in isolation, 0.2% and 0.6% w/v; FIG. 5
Method: A further experiment was completed measuring the growth curves of Candida albicans grown at 28° C. measured by absorbance (540 nm). […] Catalase was added to remove any confounding effects from hydrogen peroxide. As may be appreciated, the peroxide effect can vary between and within honeys giving rise to poor results that are difficult to interpret. Removal of the peroxide effect gives clearer result. It should be noted that a lower growth temperature than usual was used to prevent filamentous growth, which is an artifact of these Candida assays. The results found were clean easily measurable results and were verified under a microscope to be accurate. A further experiment was completed measuring the percentage inhibition expressed as a proportion of Candida albicans growth in media alone. […] Catalase was added to remove the peroxide effect noted above.

Candida albicans [3] = assay: Candida albicans broth microtitre plate growth assay, absorbance at 650 nm, 28° C. (Example 4); conditions: honey alone (10% w/v, catalase) or lactoferrin alone (2.5-10 mg/ml); FIG. 6
Method: A further set of Candida albicans repeat trials were completed where the growth of Candida albicans cultures in broth was measured when subjected to a 10% w/v manuka honey with catalase and lactoferrin treatments ranging from 2.5-10 mg/ml. To prevent filamentous growth, the assay temperature was 28° C. as used previously. The assay was a broth microtitre plate set-up. Growth was measured by absorbance at 650 nm. Catalase was added to remove the peroxide effect noted above.

B1: lactoferrin (protein, UniProt P02788 20-710, looked up)
Lactotransferrin: GRRRSVQWCAVSQPEATKCFQWQRNMRKVRGPPVSCIKRDSPIQCIQAIAENRADAVTLDGGFIYEAGLAPYKLRPVAAEVYGTERQPRTHYYAVAVVKKGGSFQLNELQGLKSCHTGLRRTAGWNVPIGTLRPFLNWTGPPEPIEAAVARFFSASCVPGADKGQFPNLCRLCAGTGENKCAFSSQEPYFSYSGAFKCLRDGAGDVAFIRESTVFEDLSDEAERDEYELLCPDNTRKPVDKFKDCHLARVPSHAVVARSVNGKEDAIWNLLRQAQEKFGKDKSPKFQLFGSPSGQKDLLFKDSAIGFSRVPPRIDSGLYLGSGYFTAIQNLRKSEEEVAARRARVVWCAVGEQELRKCNQWSGLSEGSVTCSSASTTEDCIALVLKGEADAMSLDGGYVYTAGKCGLVPVLAENYKSQQSSDPDPNCVDRPVEGYLAVAVVRRSDTSLTWNSVKGKKSCHTAVDRTAGWNIPMGLLFNQTGSCKFDEYFSQSCAPGSDPRSNLCALCIGDEQGENKCVPNSNERYYGYTGAFRCLAENAGDVAFVKDVTVLQNTDGNNNEAWAKDLKLADFALLCLDGKRKPVTEARSCHLAMAPNHAVVSRMDKVERLKQVLLHQQAKFGRNGSDCPDKFCLFQSETKNLLFNDNTECLARLHGKTTYEKYLGPQYVAGITNLKKCSTSPLLEACEFLRK
notes: metal chelator that scavenges free transition metal ions, specifically iron
Candida albicans [1]; after 24 hours
  difference to controls without honey or lactoferrin after 24 hours: little difference
Candida albicans [1]; honey 7.5-12.5% (w/v) or lactoferrin 3-5 mg/mL
  degree of inhibition of microbial growth: relatively low
Candida albicans [2]
  percentage inhibition as a proportion of growth in media alone: negligible effects
Candida albicans [3]
  inhibition of growth: minimal inhibition
